Consider one molecule from PMC9477392 (2022).

This test concerns the target T1, Atox1 (Homo sapiens, UniProt O00244).
T1 chain: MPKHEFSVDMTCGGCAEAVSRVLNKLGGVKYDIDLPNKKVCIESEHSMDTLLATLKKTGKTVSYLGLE
As to the kind of experiment: SPR. (In general: SPR reads the build-up and loss of mass on a sensor chip optically.)

B1: Memo1 (protein)
chain: MSNRVVCREASHAGSWYTASGPQLNAQLEGWLSQVQSTKRPARAIIAPHAGYTYCGSCAAHAYKQVDPSITRRIFILGPSHHVPLSRCALSSVDIYRTPLYDLRIDQKIYGELWKTGMFERMSLQTDEDEHSIEMHLPYTAKAMESHKDEFTIIPVLVGALSESKEQEFGKLFSKYLADPSNLFVVSSDFCHWGQRFRYSYYDESQGEIYRSIEHLDKMGMSIIEQLDPVSFSNYLKKYHNTICGRHPIGVLLNAITELQKNGMNMSFSFLNYAQSSQCRNWQDSSVSYAAGALTVH
modifications: Cu(I)-loaded Atox1
As usually defined, the Kd is the concentration at which binding is half-saturated. The molecule B1 returned a Kd of 210 nM.
